# Assay results: PMC6624267
# Target: CARD11^8–172 (human) (UniProt Q9BXL7)
# Experiment: SEC-MALS; CARD11^8–172 alone; measured 36.5 kDa against 39.4 kDa expected for a dimer
substance,measurement,value
CARD11^8–172 (from UniProt Q9BXL7 8-172) (domain or fragment),stoichiometry N,2
